Molecular target: cathepsin B

With surugamide I (13) (peptide) the IC50 of cathepsin B inhibition (fluorescence-based kit assay) was 9 µM.

From patent US20200079823A1
